Measurements taken from patent US20190119406A1 (BISON THERAPEUTICS, published 2019).

Target: T1, Mutant OA chain (long chain, CH1-hinge-CH2-CH3 with P395K, P396K, V397K) (human, UniProt P01857-1 1-330 = IgG part, P395K; P396K; V397K)
T1 construct: domain: CH1-hinge-CH2-CH3; Expressed alone it is expected as a long chain homodimer; also called OA mutation chain; Mutation OA chain
Assay: three independent co-transfections in HEK293, protein A bead pull-down, SDS-PAGE (FIG. 6)
Experimental: DNA encoding long chain and short chain were mixed with 1:1 ratio and transfected into HEK293 cells. Three days later, cell culture supernatants were harvested and subjected to magnetic protein A beads pull-down. Proteins bound to magnetic beads were analyzed by SDS-PAGE electrophoresis.
Various positive charged and negative charged polypeptide chain combinations were co-expressed in HEK 293 cells. […] Three days after transfection, cell culture supernatants were harvested by centrifugation and subjected to protein A magnetic beads (Pierce) pull down. Protein products bound on magnetic beads were characterized based on their mobility on SDS-PAGE gel electrophoresis. Collected protein A magnetic beads with bound proteins were re-suspended in 30 μL PBS buffer, mixed with 30 μL of SDS-PAGE loading buffer and boiled for 5 min. Half volume of boiled samples was loaded onto 10% SDS-PAGE to separate long chain homodimer, long chain and short chain heterodimer and short chain homodimer.

B1: Mutant OB chain (short chain, hinge-CH2-CH3 with T394D, P395D, P396D) (other, human, UniProt P01857-1 104-330, looked up, name in EU numbering)
chain: DKTHTCPPCPAPELLGGPSVFLFPPKPKDTLMISRTPEVTCVVVDVSHEDPEVKFNWYVDGVEVHNAKTKPREEQYNSTYRVVSVLTVLHQDWLNGKEYKCKVSNKALPAPIEKTISKAKGQPREPQVYTLPPSRDELTKNQVSLTCLVKGFYPSDIAVEWESNGQPENNYKTDDDVLDSDGSFFLYSKLTVDKSRWQQGNVFSCSVMHEALHNHYTQKSLSLSPGK
notes: domain: hinge-CH2-CH3; also called OB mutation chain; Mutation OB chain
- binding result: binds
